Test results: PMC6561319, “Proteomic Profiling, Transcription Factor Modeling, and Genomics of Evolved Tolerant Strains Elucidate Mechanisms of Vanillin Toxicity in Escherichia coli” (mSystems, 2019)

What was measured:
[1] = substrate: COc1cc(C=O)ccc1O; assay: purified protein; format: biochemical, Escherichia coli; details: 0.1 mM NADPH, 100 mM phosphate pH 7.4, 37°C
[2] = substrate: O=C(O)CC(=O)C(=O)O; assay: purified protein; format: biochemical, Escherichia coli; details: 67 μM acetyl-CoA (fixed), 0.2 mM DTNB, 100 mM Tris-HCl pH 8, 37°C

| Protein | Km [1] [µM] | kcat [1] [s⁻¹] | Km [2] [µM] | Vmax [2] [µmol/min/mg] | kcat [2] [s⁻¹] | kcat/Km [2] [M⁻¹ s⁻¹] |
| --- | --- | --- | --- | --- | --- | --- |
| YqhD (Escherichia coli K-12) (protein) MNNFNLHTPTRILFGKGAIAGLREQIPHDARVLITYGGGSVKKTGVLDQVLDALKGMDVLEFGGIEPNPAYETLMNAVKLVREQKVTFLLAVGGGSVLDGTKFIAAAANYPENIDPWHILQTGGKEIKSAIPMGCVLTLPATGSESNAGAVISRKTTGDKQAFHSAHVQPVFAVLDPVYTYTLPPRQVANGVVDAFVHTVEQYVTKPVDAKIQDRFAEGILLTLIEDGPKALKEPENYDVRANVMWAATQALNGLIGAGVPQDWATHMLGHELTAMHGLDHAQTLAIVLPALWNEKRDTKRAKLLQYAERVWNITEGSDDERIDAAIAATRNFFEQLGVPTHLSDYGLDGSSIPALLKKLEEHGMTQLGENHDITLDVSRRIYEAAR | 270 ± 40 | 0.103 | – | – | – | – |
| DkgA (Escherichia coli K-12) (protein) ANPTVIKLQDGNVMPQLGLGVWQASNEEVITAIQKALEVGYRSIDTAAAYKNEEGVGKALKNASVNREELFITTKLWNDDHKRPREALLDSLKKLQLDYIDLYLMHWPVPAIDHYVEAWKGMIELQKEGLIKSIGVCNFQIHHLQRLIDETGVTPVINQIELHPLMQQRQLHAWNATHKIQTESWSPLAQGGKGVFDQKVIRDLADKYGKTPAQIVIRWHLDSGLVVIPKSVTPSRIAENFDVWDFRLDKDELGEIAKLDQGKRLGPDPDQFGG | 200 ± 80 | 0.0467 | – | – | – | – |
| GltA (citrate synthase) (Escherichia coli K-12) (protein, hexamer) MADTKAKLTLNGDTAVELDVLKGTLGQDVIDIRTLGSKGVFTFDPGFTSTASCESKITFIDGDEGILLHRGFPIDQLATDSNYLEVCYILLNGEKPTQEQYDEFKTTVTRHTMIHEQITRLFHAFRRDSHPMAVMCGITGALAAFYHDSLDVNNPRHREIAAFRLLSKMPTMAAMCYKYSIGQPFVYPRNDLSYAGNFLNMMFSTPCEPYEVNPILERAMDRILILHADHEQNASTSTVRTAGSSGANPFACIAAGIASLWGPAHGGANEAALKMLEEISSVKHIPEFVRRAKDKNDSFRLMGFGHRVYKNYDPRATVMRETCHEVLKELGTKDDLLEVAMELENIALNDPYFIEKKLYPNVDFYSGIILKAMGIPSSMFTVIFAMARTVGWIAHWSEMHSDGMKIARPRQLYTGYEKRDFKSDIKR | – | – | 154 ± 25 | 4.8 | 3.87 ± 0.233 | 25100 ± 1470 |
